From paper PMC8260656

Biological target: EZH2 recombinant protein His-tagged (Epigentek, E24031-1) (human) (UniProt Q15910)
Experiment: MST; labeled His-tagged EZH2 at 5 nM fixed; ERG from 0.4uM to 2.44E-05uM; incubated at room temperature for 5 min; Monolith NT.115, Premium capillaries, 30% LED excitation, high MST power

Kd: 290 nM
B1: ERG recombinant protein (Origene, TP308093) (natural protein)
chain: MASTIKEALSVVSEDQSLFECAYGTPHLAKTEMTASSSSDYGQTSKMSPRVPQQDWLSQPPARVTIKMECNPSQVNGSRNSPDECSVAKGGKMVGSPDTVGMNYGSYMEEKHMPPPNMTTNERRVIVPADPTLWSTDHVRQWLEWAVKEYGLPDVNILLFQNIDGKELCKMTKDDFQRLTPSYNADILLSHLHYLRETPLPHLTSDDVDKALQNSPRLMHARNTGGAAFIFPNTSVYPEATQRITTRPDLPYEPPRRSAWTGHGHPTPQSKAAQPSPSTVPKTEDQRPQLDPYQILGPTSSRLANPGSGQIQLWQFLLELLSDSSNSSCITWEGTNGEFKMTDPDEVARRWGERKSKPNMNYDKLSRALRYYYDKNIMTKVHGKRYAYKFDFHGIAQALQPHPPESSLYKYPSDLPYMGSYHAHPQKMNFVAPHPPALPVTSSSFFAAPNPYWNSPTGGIYPNTRLPTSHMPSHLGTYY
